Measured values: publication PMC3618430 (PLoS ONE, 2013)
Where a chain is given by its changes, count along the chain named.

B1: A3 Fab displayed on phage (Fab, V domains shown)
VH: QVTLKESGPGILKPSQTLSLTCSFSGFSLSTSGMGVGWIRQSSGKGLEWLANIWWDDDKYYNPSLKSQLTISKDTSRNQVFLKITSVDTADTATYYCARRGEYDAMDYWGQGTSVTVSS
VL: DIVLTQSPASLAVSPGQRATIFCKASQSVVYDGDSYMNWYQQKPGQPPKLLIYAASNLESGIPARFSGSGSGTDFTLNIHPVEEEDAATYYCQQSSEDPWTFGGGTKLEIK
notes: also called clone A3; Fab-phage A3; source: E. coli TG-1 with helper phage KM13, phage PEG-precipitated
B2: A4 Fab displayed on phage (Fab, V domains shown)
VH: B1 VH with S42P, E102K, A105S
VL: DIVLTQSPASLAMSLGQRATISCKASQSVVYDGDSYMNWYQQKPGQPPKLLIYAASNLESGIPARFSGSGSGTDFTLNIHPVEEEDAATYYCQQSSEDPWTFGGGTKLEIK
notes: also called clone A4; Fab-phage A4; source: E. coli TG-1 with helper phage KM13, phage PEG-precipitated
B3: D8 Fab displayed on phage (Fab, V domains shown)
VH: B1 VH with S32P, S42P, A90T, E102N
VL: B2 VL
notes: also called clone D8; Fab-phage D8; source: E. coli TG-1 with helper phage KM13, phage PEG-precipitated
B4: D4 Fab displayed on phage (Fab, V domains shown)
VH: B1 VH with S30N, S42P, Q68H, R77G, T92S, E102D, A105S, M106L
VL: B2 VL with A9G, A12S, M13V, V30D
notes: also called clone D4; Fab-phage D4; source: E. coli TG-1 with helper phage KM13, phage PEG-precipitated

target: T1, bovine serum albumin (Bos taurus, UniProt P02769); test: ELISA; settings: one partner purified
T1 construct: also called BSA
T1 sequence (P02769 25-607): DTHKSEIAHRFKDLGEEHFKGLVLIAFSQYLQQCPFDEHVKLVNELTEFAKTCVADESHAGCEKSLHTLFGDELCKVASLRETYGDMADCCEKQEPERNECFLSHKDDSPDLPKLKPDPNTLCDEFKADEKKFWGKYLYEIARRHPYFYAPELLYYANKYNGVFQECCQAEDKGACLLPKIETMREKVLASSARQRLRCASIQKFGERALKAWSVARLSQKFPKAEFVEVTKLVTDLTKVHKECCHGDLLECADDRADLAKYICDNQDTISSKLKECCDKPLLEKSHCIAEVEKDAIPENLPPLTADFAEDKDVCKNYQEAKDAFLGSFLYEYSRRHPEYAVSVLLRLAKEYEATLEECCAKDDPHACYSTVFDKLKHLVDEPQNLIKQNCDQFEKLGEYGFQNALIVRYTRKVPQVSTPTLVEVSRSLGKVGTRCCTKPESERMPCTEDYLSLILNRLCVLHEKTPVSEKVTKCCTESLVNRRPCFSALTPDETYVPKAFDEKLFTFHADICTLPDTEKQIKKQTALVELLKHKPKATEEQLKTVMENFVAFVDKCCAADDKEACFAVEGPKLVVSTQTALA

Binder | binding result
B1 | no binding
B2 | no binding
B3 | no binding
B4 | no binding

target: recombinant A/Netherlands/219/03 (H7N7) HA (Influenza A virus …, UniProt Q6VMK1, strain); test: ELISA; settings: one partner purified

Binder | binding result
B1 | no binding
B2 | no binding
B3 | no binding
B4 | no binding

target: recombinant A/Anhui/1/05 (H5N1) HA (Influenza A virus A/Anhui/1/2005 (H5N1), UniProt Q1WDM0, strain); test: ELISA; settings: one partner purified

Binder | binding result
B1 | binds
B2 | binds
B3 | binds
B4 | binds

target: T2, recombinant A/California/04/2009 H1N1 HA (Influenza A virus A/California/04/2009 …, UniProt C3W5S1, strain); test: ELISA; settings: one partner purified
T2 construct: source: bought: Sino Biological Inc

Binder | binding result
B1 | no binding
B2 | no binding
B3 | no binding
B4 | no binding

target: recombinant A/Turkey/1/2005 (H5N1) HA (Influenza A virus …, UniProt Q207Z6, strain); test: ELISA; settings: one partner purified

Binder | binding result
B1 | binds
B2 | binds
B3 | binds
B4 | binds
